According to patent EP4786492A1:
Positions count from the first letter of the chain named.

B1: mab002 scFv-hFc (Fc fusion, not shown: small tags and cut ends; a dimerising Fc or GST)
scFv (part 1 of 2): QIVLTQSPAIMSASPGEKVTMTCSARSSVSYMQWYQQKSGTSPKRWIYDTSKLASGVPARFSGSGSGTSYSLTISTMEAEDAATYYCQQWSSDPPTFGGGTKLEIK
scFv (part 2 of 2): QIQLVQSGPELKKPGETVKISCKASGYTFTNYGMNWLKQAPGKGLKWMGWINTYTGESTYADDFKGRFAFSLETSASTVYLQINNLKNEDMATYFCARMGDGYYDFTMDYWGQGTSVTVSS
B2: mab016 scFv-hFc (Fc fusion, not shown: small tags and cut ends; a dimerising Fc or GST)
scFv (part 1 of 2): DIVMTQSQKFMSTTIGDRVSITCKASQNVGTTVAWYQQKPGQSPNLLLYSTSNRFTGVPDRFTGSGSGTDFTLTITNMQSEDLADYFCQQYNNYPLTFGGGTKLEIK
scFv (part 2 of 2): EVNLEESGGGLVQPGGSMKLSCVASGFAFSNFWMQWVRQSPEKGLEWVAQIRLKSDNYAAHYAESVKGRFTISRDDSKSSVYLQLNNLRAEDTGTYYCTQGNWVGFAYWGQGTLVTVSA
B3: mab007 scFv-hFc (Fc fusion, not shown: small tags and cut ends; a dimerising Fc or GST)
scFv (part 1 of 2): DVQITQSPSYLAASPGETITINCRASTSISKYLAWYQERPGKTNKLLIYSGSTLQSGIPSRFRGSGSGTDFTLTISSLEPEDFAMYYCQQHHVYPYTFGGGTKLEIK
scFv (part 2 of 2): QVQLQQPGAELVRPGTSVKLSCKASGYTFTSYWMHWVKQRPGQGLEWIGVIDPSDSLANYNQEFKGKATLTVDTSSSTAYMQLSSLTSEDSAVYYCARDSTVVAPMDYWGQGTSVTVSS
B4: mab006 scFv-hFc (Fc fusion, not shown: small tags and cut ends; a dimerising Fc or GST)
scFv (part 1 of 2): B3 scFv (part 1 of 2) with S26T, T27K, R39K, Y49F, V93E
scFv (part 2 of 2): B3 scFv (part 2 of 2) with K38R
B5: mab008 scFv-hFc (Fc fusion, not shown: small tags and cut ends; a dimerising Fc or GST)
scFv (part 1 of 2): DIVMTQSQKFMSTSVGDRVSITCKASQNVGTAVAWYQQKPGQSPKLLIFSASIRYTGVPDRFTGSGSGTDFTLTISNMQSEDLADYFCQQYSSSPYTFGGGTKLEIK
scFv (part 2 of 2): EVQLQQSGPVLVKPGASVKMSCKASGYTFTDYYMNWVKRSHGKSLEWIGIINPYNGGTSYNQKFRGKATLTVDKSSNTAYMELNSLTSEDSAVYYCSRYDYDYDVEGAMDYWGQGTSVTVSS
B6: mab014 scFv-hFc (Fc fusion, not shown: small tags and cut ends; a dimerising Fc or GST)
scFv (part 1 of 2): DIQMTQSSSSFSVSLGDRVTITCKASEDIYNRLAWYQQKPGNTPRLLISGATSLETGVPSRFSGSGSGKDFTLSITSLQTEDVATYYCQQYWSLPWTFGGGTKLEIK
scFv (part 2 of 2): EVQLHQSGPELVKPGTSVKISCKASGYTFTDYYMNWVKQSHGKSLEWIGDINPNHGDTGYNQKFTGKATLTVDKSSSTAYMELRSLTSEDSAVYYCARNFFYYGTTYGWYFDVWGTGTTVTVSS
B7: mab012 scFv-hFc (Fc fusion, not shown: small tags and cut ends; a dimerising Fc or GST)
scFv (part 1 of 2): DVLMTQTPLSLPVSLGDQASISCRSSQSIVHSDGNTYLEWYLQKPGQSPKLLIYKVSNRFSGVPDRFSGSGSGTDFTLKISRVEAEDLGFYYCFQGSHVPFTFGSGTKLEIK
scFv (part 2 of 2): QVQLQQSGPELVKPGASVKISCKASGYTFTDYYIHWVKQRPGQGLEWIGWTLPGSGSPYYNEKFKGKATLTVDKSSSTAYMLLSSLTSEDSAVYFCARWHYYYGSSYHFDYWGQGTTLTVSS
B8: mab005 scFv-hFc (Fc fusion, not shown: small tags and cut ends; a dimerising Fc or GST)
scFv (part 1 of 2): DIVLTQSPATLSVTPGDSVSLSCRASQSVSNDLHWYQQKSHESPRLLIKYASQSISGIPSRFSGSGSGTDFTLTINSVETEDFGMYFCQQSNNWPYTFGGGTKLEMK
scFv (part 2 of 2): QVQLQQSGAELMKPGASVTLSCKATGYTLPGYWIEWVKQRPGHGLEWIGEILPGSSSANYNEKFKGKATFTADTSSNTAYMQLSSLTTEDSAIYYCASTYGTSLDYWGQGTTLTVSS
B9: mab011 scFv-hFc (Fc fusion, not shown: small tags and cut ends; a dimerising Fc or GST)
scFv (part 1 of 2): B8 scFv (part 1 of 2) with V29I, D32N, T74S, N93S, Y96W, M106I
scFv (part 2 of 2): EVQLQQSGPELVKPGASVKISCKASGYTFTDYYMNWVKQSHGKSLEWIGDISPNYGGTNYNQKFKGKATLTVDKSSSTACMELRSLTSEDSAVYYCTRSFYYYGTGYDWYFDVWGTGTTVTVSS

biological target: human DLL3 endogenously expressed on SHP77 and NCI-H82 cells (human) (UniProt Q9NYJ7); experiment: FACS SHP77 cells, 0.032 nM
Sequence (Q9NYJ7 27-618): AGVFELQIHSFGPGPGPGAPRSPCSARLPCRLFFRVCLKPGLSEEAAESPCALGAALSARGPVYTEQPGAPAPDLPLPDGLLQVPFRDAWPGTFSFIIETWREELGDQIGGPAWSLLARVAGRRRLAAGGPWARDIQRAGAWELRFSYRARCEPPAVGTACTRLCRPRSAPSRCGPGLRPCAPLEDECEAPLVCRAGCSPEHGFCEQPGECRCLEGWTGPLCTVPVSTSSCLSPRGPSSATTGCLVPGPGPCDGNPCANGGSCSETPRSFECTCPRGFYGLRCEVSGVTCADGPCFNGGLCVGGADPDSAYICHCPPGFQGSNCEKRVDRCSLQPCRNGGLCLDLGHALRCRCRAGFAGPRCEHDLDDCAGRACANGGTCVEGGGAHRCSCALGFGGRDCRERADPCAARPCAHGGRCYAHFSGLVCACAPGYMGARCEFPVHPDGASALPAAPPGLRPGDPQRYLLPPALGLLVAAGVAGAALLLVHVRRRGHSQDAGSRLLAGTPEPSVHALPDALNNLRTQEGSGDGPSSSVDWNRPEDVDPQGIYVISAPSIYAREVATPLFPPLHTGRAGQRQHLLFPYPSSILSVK

Question: Which MFI does the source give for B1 here?
Answer: 371 MFI

Question: B2 was tested. Which MFI did it give?
Answer: 202 MFI

Question: With B3 as the binder, how does the MFI read?
Answer: 227 MFI

Question: How did the MFI turn out when B4 was run?
Answer: 267 MFI

Question: Which MFI does the source give for B5 here?
Answer: 98 MFI

Question: B6 was tested. Which MFI did it give?
Answer: 137 MFI

Question: How did the MFI turn out when B7 was run?
Answer: 98 MFI

Question: How did the MFI turn out when B8 was run?
Answer: 172 MFI

Question: B9 was tested. Which MFI did it give?
Answer: 146 MFI

biological target: human DLL3 endogenously expressed on SHP77 and NCI-H82 cells (human) (UniProt Q9NYJ7); experiment: FACS SHP77 cells, 0.16 nM

Question: For B1, which MFI is on record?
Answer: 518 MFI

Question: Which MFI does the source give for B2 here?
Answer: 391 MFI

Question: How did the MFI turn out when B3 was run?
Answer: 406 MFI

Question: For B4, which MFI is on record?
Answer: 497 MFI

Question: With B5 as the binder, how does the MFI read?
Answer: 130 MFI

Question: With B6 as the binder, how does the MFI read?
Answer: 237 MFI

Question: For B7, which MFI is on record?
Answer: 110 MFI

Question: How did the MFI turn out when B8 was run?
Answer: 287 MFI

Question: How did the MFI turn out when B9 was run?
Answer: 239 MFI

biological target: human DLL3 endogenously expressed on SHP77 and NCI-H82 cells (human) (UniProt Q9NYJ7); experiment: FACS SHP77 cells, 0.0064 nM

Question: How did the MFI turn out when B1 was run?
Answer: 255 MFI

Question: How did the MFI turn out when B2 was run?
Answer: 121 MFI

Question: For B3, which MFI is on record?
Answer: 135 MFI

Question: With B4 as the binder, how does the MFI read?
Answer: 152 MFI

Question: Which MFI does the source give for B5 here?
Answer: 90 MFI

Question: How did the MFI turn out when B6 was run?
Answer: 104 MFI

Question: How did the MFI turn out when B7 was run?
Answer: 94 MFI

Question: B8 was tested. Which MFI did it give?
Answer: 125 MFI

Question: With B9 as the binder, how does the MFI read?
Answer: 103 MFI

biological target: human DLL3 endogenously expressed on SHP77 and NCI-H82 cells (human) (UniProt Q9NYJ7); experiment: FACS SHP77 cells, 4 nM

Question: For B1, which MFI is on record?
Answer: 535 MFI

Question: Which MFI does the source give for B2 here?
Answer: 546 MFI

Question: How did the MFI turn out when B3 was run?
Answer: 563 MFI

Question: Which MFI does the source give for B4 here?
Answer: 664 MFI

Question: Which MFI does the source give for B5 here?
Answer: 365 MFI

Question: B6 was tested. Which MFI did it give?
Answer: 681 MFI

Question: Which MFI does the source give for B7 here?
Answer: 337 MFI

Question: With B8 as the binder, how does the MFI read?
Answer: 451 MFI

Question: Which MFI does the source give for B9 here?
Answer: 508 MFI

biological target: human DLL3 endogenously expressed on SHP77 and NCI-H82 cells (human) (UniProt Q9NYJ7); experiment: FACS SHP77 cells, 0.00128 nM

Question: B1 was tested. Which MFI did it give?
Answer: 197 MFI

Question: Which MFI does the source give for B2 here?
Answer: 96 MFI

Question: With B3 as the binder, how does the MFI read?
Answer: 103 MFI

Question: B4 was tested. Which MFI did it give?
Answer: 112 MFI

Question: B5 was tested. Which MFI did it give?
Answer: 82 MFI

Question: Which MFI does the source give for B6 here?
Answer: 96 MFI

Question: For B7, which MFI is on record?
Answer: 94 MFI

Question: How did the MFI turn out when B8 was run?
Answer: 117 MFI

Question: Which MFI does the source give for B9 here?
Answer: 90 MFI

biological target: human DLL3 endogenously expressed on SHP77 and NCI-H82 cells (human) (UniProt Q9NYJ7); experiment: FACS SHP77 cells, 20 nM

Question: How did the MFI turn out when B1 was run?
Answer: 548 MFI

Question: Which MFI does the source give for B2 here?
Answer: 653 MFI

Question: B3 was tested. Which MFI did it give?
Answer: 634 MFI

Question: Which MFI does the source give for B4 here?
Answer: 718 MFI

Question: How did the MFI turn out when B5 was run?
Answer: 468 MFI

Question: Which MFI does the source give for B6 here?
Answer: 829 MFI

Question: Which MFI does the source give for B7 here?
Answer: 729 MFI

Question: With B8 as the binder, how does the MFI read?
Answer: 486 MFI

Question: B9 was tested. Which MFI did it give?
Answer: 608 MFI

biological target: human DLL3 endogenously expressed on SHP77 and NCI-H82 cells (human) (UniProt Q9NYJ7); experiment: FACS SHP77 cells, 0.8 nM

Question: For B1, which MFI is on record?
Answer: 498 MFI

Question: With B2 as the binder, how does the MFI read?
Answer: 502 MFI

Question: How did the MFI turn out when B3 was run?
Answer: 525 MFI

Question: B4 was tested. Which MFI did it give?
Answer: 643 MFI

Question: How did the MFI turn out when B5 was run?
Answer: 208 MFI

Question: B6 was tested. Which MFI did it give?
Answer: 461 MFI

Question: B7 was tested. Which MFI did it give?
Answer: 164 MFI

Question: Which MFI does the source give for B8 here?
Answer: 404 MFI

Question: For B9, which MFI is on record?
Answer: 417 MFI

biological target: human DLL3 endogenously expressed on SHP77 and NCI-H82 cells (human) (UniProt Q9NYJ7); experiment: FACS SHP77 cells, 100 nM

Question: How did the MFI turn out when B1 was run?
Answer: 596 MFI

Question: B2 was tested. Which MFI did it give?
Answer: 790 MFI

Question: For B3, which MFI is on record?
Answer: 521 MFI

Question: B4 was tested. Which MFI did it give?
Answer: 876 MFI

Question: For B5, which MFI is on record?
Answer: 412 MFI

Question: How did the MFI turn out when B6 was run?
Answer: 1200 MFI

Question: With B7 as the binder, how does the MFI read?
Answer: 1100 MFI

Question: With B8 as the binder, how does the MFI read?
Answer: 543 MFI

Question: B9 was tested. Which MFI did it give?
Answer: 822 MFI
